From patent US20150166606A1 (RA PHARMACEUTICALS, published 2015)
Bridge positions count the residues as written; N and C are the ends. Square brackets hold non-standard residues; d marks the D form. Primed or numbered codes have the meaning given here. Ends that are not written are not given here. * marks the point of attachment. N‑ω hexylcarbamate = hexyl carbamate on the ω-nitrogen of the arginine side chain, CCCCCCOC(=O)*; mXylyl = xylyl linker from dibromoxylene joining the two cysteines; mXylyl″ = dibromoxylene linker (meta) joining the cysteines; 4‑BZA = 2-amino-3-(4-carbamimidoylphenyl)propanoic acid; Trp(5-Cl) = N[C@@H](Cc1c[nH]c2ccc(Cl)cc12)C(=O)O; des‑NH2 = missing amino-terminal amine group; Phe(3-Cl) = N[C@@H](Cc1cccc(Cl)c1)C(=O)O; Phe(4-Cl) = N[C@@H](Cc1ccc(Cl)cc1)C(=O)O; Phe(4-amidino)′ = not defined here; NMeR = CN[C@@H](CCCNC(=N)N)C(=O)O; NMeI = CC[C@H](C)[C@H](NC)C(=O)O; BODIPY‑TMR = fluorescent label; Phg(2-OMe)′ = not defined here; dPhg = N[C@@H](C(=O)O)c1ccccc1; Chg = N[C@H](C(=O)O)C1CCCCC1; Phg = N[C@H](C(=O)O)c1ccccc1; Tle = CC(C)(C)[C@H](N)C(=O)O; αMeP = C[C@@]1(C(=O)O)CCCN1; 2‑APY = not defined here; 3‑BZA = not defined here; Orn = NCCC[C@H](N)C(=O)O; Ac5c = NC1(C(=O)O)CCCC1; Aze = O=C(O)[C@@H]1CCN1; Dab = NCC[C@H](N)C(=O)O; Thp = NC1(C(=O)O)CCOCC1; Ac4c = NC1(C(=O)O)CCC1; Ac3c = NC1(C(=O)O)CC1; Aib = CC(C)(N)C(=O)O; Mpa = O=C(O)CCS

B1: R2212 (peptide)
peptide: {des‑NH2}-CP[dPhg]C[Dab][Tle]-NH2
modifications: bridge 1-4; not fully specified (residue 1, bridges); printed as [mXylyl(1,4)](des-NH2)C-P-(D-Phg)-C-Dab-Tbg-NH2
B2: R2179 (peptide)
peptide: [Mpa][Thp]A[Chg]C[3‑BZA]V-NH2
modifications: linker 1-5 via mXylyl; reading uncertain; also: printed as [mXylyl(1,5)](des-NH2)C-AcPyr-A-Chg-C-(3-BZA)-V-NH2
B3: R2198 (peptide)
peptide: [Mpa]P[Chg]C[2‑APY][Tle]-NH2
modifications: linker 1-4 via mXylyl; reading uncertain; also: printed as [mXylyl(1,4)](Des-NH2)C-P-Chg-C-(2-APY-Tbg-NH2)
B4: R2171 (peptide)
peptide: CESICRV-NH2
modifications: linker 1-5 via mXylyl″; not fully specified (residues 1, 6, N-terminus); printed as [mXylyl(1,5)](des-NH2)C-ESIC-r-V-NH2
B5: R2211 (peptide)
peptide: {des‑NH2}-CP[Phg]C[Dab][Tle]-NH2
modifications: linker 1-4 via mXylyl; not fully specified (residue 1); printed as [mXylyl(1,4)](des-NH2)C-P-Phg-C-Dab-Tbg-NH2

molecular target: Activated human plasma kallikrein (Enzyme Research Laboratories, HPKa 1303) (human, UniProt P03952 20-638); assay: cell-based or functional assay
Sequence (P03952 20-638 limits assumed): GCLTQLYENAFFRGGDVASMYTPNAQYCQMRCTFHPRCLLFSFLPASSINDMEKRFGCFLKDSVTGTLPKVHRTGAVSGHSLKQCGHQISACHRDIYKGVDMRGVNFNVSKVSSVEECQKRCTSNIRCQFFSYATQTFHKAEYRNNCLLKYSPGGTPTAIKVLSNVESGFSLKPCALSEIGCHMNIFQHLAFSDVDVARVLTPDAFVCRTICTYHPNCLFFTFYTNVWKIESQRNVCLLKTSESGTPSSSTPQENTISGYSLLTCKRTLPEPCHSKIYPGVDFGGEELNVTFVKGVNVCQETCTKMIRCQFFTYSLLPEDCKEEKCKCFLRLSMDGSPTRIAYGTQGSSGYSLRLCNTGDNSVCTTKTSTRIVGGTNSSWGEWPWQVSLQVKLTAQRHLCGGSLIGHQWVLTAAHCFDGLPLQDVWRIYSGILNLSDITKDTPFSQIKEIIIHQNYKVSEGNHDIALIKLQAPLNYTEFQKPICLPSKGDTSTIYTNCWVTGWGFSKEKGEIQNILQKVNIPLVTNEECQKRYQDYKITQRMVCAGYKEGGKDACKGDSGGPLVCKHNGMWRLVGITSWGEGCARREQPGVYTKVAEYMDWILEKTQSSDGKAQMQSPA

Point of comparison: {des‑NH2}-CP[Chg]CR-{(S)‑2,2‑dimethyl‑1‑(pyridin-2-yl)propan‑1‑amine} (linker 1-4 via mXylyl) [R2196], “Avg. IC50” value 35.6 nM. Against it:
- {des‑NH2}-CP[dPhg]C[Phe(3-Cl)][Tle]-NH2 (linker 1-4 via mXylyl) [R2208] — higher, > 75000 nM
- B1 — higher, > 100000 nM
- {des‑NH2}-CP[Phg]C[Phe(4-amidino)′]V-NH2 (linker 1-4 via mXylyl) [R2215] — 180-fold higher, 6390 nM
- B2 — higher, > 8230 nM
- {des‑NH2}-CP[Phg]C[Phe(3-Cl)][Tle]-NH2 (linker 1-4 via mXylyl) [R2207] — higher, > 75000 nM
- {des‑NH2}-CP[dPhg]CR[Tle]-NH2 (linker 1-4 via mXylyl) [R2187] — higher, > 4700 nM
- [Mpa][Aze][Chg]CR[Tle]-NH2 (linker 1-4 via mXylyl) [R2194] — 3.6-fold higher, 127 nM
- [Mpa][Ac5c]A[Chg]CRV-OH (linker 1-5 via mXylyl) [R2175] — 11-fold higher, 379 nM
- {des‑NH2}-C[αMeP][Phg]CR[Tle]-NH2 (linker 1-4 via mXylyl) [R2199] — 66-fold lower, 0.54 nM
- {des‑NH2}-CP[Phg]CR[Tle]L-OH (linker 1-4 via mXylyl) [R2202] — 1.7-fold higher, 58.8 nM
- {des‑NH2}-C[αMeP][dPhg]CR[Tle]-NH2 (linker 1-4 via mXylyl) [R2200] — 13-fold higher, 470 nM
- [Mpa]ESIC[Orn]V-NH2 (linker 1-5 via mXylyl) [R2172] — higher, > 100000 nM
- {des‑NH2}-CS[NMeI]CR[Tle]-NH2 (linker 1-4 via mXylyl) [R2204] — higher, > 25000 nM
- CXAGCRV ([mXylyl(1,5)](des-NH2)C-(Cyclo-L)-A-Chg-CR-V-NHCH3) [R2178] — 11-fold lower, 3.2 nM
- {des‑NH2}-CP[dPhg]C[Trp(5-Cl)][Tle]-NH2 (linker 1-4 via mXylyl) [R2210] — higher, > 75000 nM
- [Mpa][Thp][Chg]CR[Tle]-NH2 (linker 1-4 via mXylyl) [R2182] — 2.6-fold lower, 13.5 nM
- {des‑NH2}-CP[αMePhg]CR[Tle]-NH2 (linker 1-4 via mXylyl) [R2192] — 24-fold higher, 851 nM
- B3 — higher, > 15000 nM
- {des‑NH2}-CP[dPhg]C[Phe(4-Cl)][Tle]-NH2 (linker 1-4 via mXylyl) [R2206] — higher, > 75000 nM
- {BODIPY‑TMR}-MCESICRV-NH2 (linker 2-6 via mXylyl) [R2193] — 5.8-fold higher, 205 nM
- [Mpa][Thp]A[Chg]C[4‑BZA](N‑hexylcarbamate)V-NH2 (linker 1-5 via mXylyl) [R2185] — higher, > 100000 nM
- {des‑NH2}-CP[Chg]CR-OH (linker 1-4 via mXylyl) [R2195] — higher, > 175000 nM
- {des‑NH2}-CP[Chg]CR(N‑ω hexylcarbamate)[Tle]-NH2 (linker 1-4 via mXylyl) [R2186] — higher, > 100000 nM
- {des‑NH2}-CP[Chg]CR-{2‑methyl‑1‑(4H-1,2,4-triazol-3-yl)propan‑1‑amine} (linker 1-4 via mXylyl) [R2197] — 1.6-fold higher, 56.9 nM
- {des‑NH2}-CP[Chg]CR[Tle]-OH (linker 1-4 via mXylyl) [R2214] — 110-fold higher, 4000 nM
- [Mpa][Aib][Chg]CR[Tle]-NH2 (linker 1-4 via mXylyl) [R2176] — 2.3-fold lower, 15.2 nM
- [Mpa][Ac4c][Chg]CR[Tle]-NH2 (linker 1-4 via mXylyl) [R2181] — 1.9-fold lower, 18.5 nM
- B4 — higher, > 100000 nM
- {des‑NH2}-CP[Phg]CR[Tle]L[NMeR]YSE-NH2 (linker 1-4 via mXylyl) [R2216] — 39-fold lower, 0.913 nM
- {des‑NH2}-CE[Chg]CR[Tle]-NH2 (linker 1-4 via mXylyl) [R2201] — 5.1-fold lower, 7 nM
- {des‑NH2}-CP[Phg]C[Trp(5-Cl)][Tle]-NH2 (linker 1-4 via mXylyl) [R2209] — higher, > 75000 nM
- {des‑NH2}-CP[Chg]CRV-OH (linker 1-4 via mXylyl) [R2183] — higher, > 3500 nM
- {des‑NH2}-CP[Phg]C[Phe(4-Cl)][Tle]-NH2 (linker 1-4 via mXylyl) [R2205] — higher, > 75000 nM
- {des‑NH2}-CP[Chg]C[2‑amino‑4‑(6-aminopyridin-3-yl)butanoic acid]V-NH2 (linker 1-4 via mXylyl; not fully specified (residue 1)) [R2203] — higher, > 10000 nM
- {des‑NH2}-C[αMeP][Chg]CR[Tle]-NH2 (linker 1-4 via mXylyl) [R2180] — 5.2-fold lower, 6.8 nM
- [Mpa][Ac5c][Chg]CK[Tle]-NH2 (linker 1-4 via mXylyl) [R2174] — 24-fold higher, 870 nM
- {des‑NH2}-CP[Phg(2-OMe)′]CR[Tle]-NH2 (linker 1-4 via mXylyl) [R2189] — within 1.5-fold, 39.8 nM
- [Mpa][Aib]A[Chg]CR[Tle]LRYSE-NH2 (linker 1-5 via mXylyl) [R2190] — 70-fold lower, 0.511 nM
- {des‑NH2}-CP[Phg]CR[Tle]-NH2 (linker 1-4 via mXylyl) [R2188] — 10-fold lower, 3.4 nM
- {des‑NH2}-CE(PEG 40 kDa)[Chg]CR[Tle]-NH2 (linker 1-4 via mXylyl) [R2213] — 13-fold higher, 462 nM
- [Mpa][Ac3c][Chg]CR[Tle]-NH2 (linker 1-4 via mXylyl) [R2177] — within 1.5-fold, 34.1 nM
- {des‑NH2}-CP[Chg]CRV-NHMe (linker 1-4 via mXylyl) [R2184] — 2.3-fold lower, 15.7 nM
- [Mpa][Aib]A[Chg]CR[Tle]LRYSE(PEG 40 kDa)-NH2 (linker 1-5 via mXylyl) [R2191] — 6.5-fold lower, 5.5 nM
- B5 — higher, > 75000 nM
